The values that follow come from patent US20100260765A1 (AstraZeneca / MedImmune, published 2010).

The target in one assay is human KDR on cells (human, UniProt P35968 20-1356). Put plainly: cell-based or functional assay.
In assay [1] the target is T1, KDR (antigen used as analyte in the Biacore assay) (UniProt P35968 20-764, limits assumed).
T1 construct: also called the antigen KDR
Put plainly: SPR, Biacore 2000; antibody amine-coupled on CM4 chip, KDR as analyte; global 1:1 fit; 23 C. The protocol:
Each purified anti-KDR antibody was immobilized on a CM4 sensor chip within a Biacore 2000 using standard amine coupling. Immobilization levels were kept between 250 and 350 RU. The concentration of KDR was determined by UV-VIS spectroscopy using a molar absorptivity at 280 nm of 110, 440 M⁻¹ cm⁻¹, which was calculated from the sequence of the protein using a method developed by Pace et al. (G. R. Grimsley and C. N. Pace (2003) in Current Protocols in Protein Science (John Wiley & Sons, Inc.), 3.1.1-3.1.9). The antigen KDR was diluted to a starting concentration of 52 nM and tested in a 3-fold dilution series in triplicate. The running buffer contained HBS-P with 0.1 mg/ml BSA and binding responses were collected at 23 degrees C. […] The response data were globally fit with a simple 1:1 interaction model. The number shown in parentheses is the standard error in the last significant figure.

T1 sequence (P35968 20-764 limits assumed): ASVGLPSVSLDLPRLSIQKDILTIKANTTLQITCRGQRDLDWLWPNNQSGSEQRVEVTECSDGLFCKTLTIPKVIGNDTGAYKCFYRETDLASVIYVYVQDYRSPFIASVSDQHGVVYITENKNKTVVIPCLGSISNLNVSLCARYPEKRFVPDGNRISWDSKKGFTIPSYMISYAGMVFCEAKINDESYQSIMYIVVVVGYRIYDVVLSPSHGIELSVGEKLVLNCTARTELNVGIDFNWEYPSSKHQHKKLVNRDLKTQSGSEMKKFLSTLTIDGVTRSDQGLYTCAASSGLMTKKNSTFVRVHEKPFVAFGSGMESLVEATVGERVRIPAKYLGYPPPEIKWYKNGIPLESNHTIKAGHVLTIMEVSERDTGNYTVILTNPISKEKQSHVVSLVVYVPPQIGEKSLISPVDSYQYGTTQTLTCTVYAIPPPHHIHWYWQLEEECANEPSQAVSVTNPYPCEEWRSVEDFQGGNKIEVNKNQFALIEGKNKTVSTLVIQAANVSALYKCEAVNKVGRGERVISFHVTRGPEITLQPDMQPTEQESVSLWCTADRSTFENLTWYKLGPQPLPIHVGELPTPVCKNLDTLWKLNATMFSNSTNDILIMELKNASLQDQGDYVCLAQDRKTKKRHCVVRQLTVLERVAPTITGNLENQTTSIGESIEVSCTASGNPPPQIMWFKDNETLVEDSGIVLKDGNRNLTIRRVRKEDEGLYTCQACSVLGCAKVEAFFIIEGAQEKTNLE
Chain of human KDR on cells (P35968 20-1356): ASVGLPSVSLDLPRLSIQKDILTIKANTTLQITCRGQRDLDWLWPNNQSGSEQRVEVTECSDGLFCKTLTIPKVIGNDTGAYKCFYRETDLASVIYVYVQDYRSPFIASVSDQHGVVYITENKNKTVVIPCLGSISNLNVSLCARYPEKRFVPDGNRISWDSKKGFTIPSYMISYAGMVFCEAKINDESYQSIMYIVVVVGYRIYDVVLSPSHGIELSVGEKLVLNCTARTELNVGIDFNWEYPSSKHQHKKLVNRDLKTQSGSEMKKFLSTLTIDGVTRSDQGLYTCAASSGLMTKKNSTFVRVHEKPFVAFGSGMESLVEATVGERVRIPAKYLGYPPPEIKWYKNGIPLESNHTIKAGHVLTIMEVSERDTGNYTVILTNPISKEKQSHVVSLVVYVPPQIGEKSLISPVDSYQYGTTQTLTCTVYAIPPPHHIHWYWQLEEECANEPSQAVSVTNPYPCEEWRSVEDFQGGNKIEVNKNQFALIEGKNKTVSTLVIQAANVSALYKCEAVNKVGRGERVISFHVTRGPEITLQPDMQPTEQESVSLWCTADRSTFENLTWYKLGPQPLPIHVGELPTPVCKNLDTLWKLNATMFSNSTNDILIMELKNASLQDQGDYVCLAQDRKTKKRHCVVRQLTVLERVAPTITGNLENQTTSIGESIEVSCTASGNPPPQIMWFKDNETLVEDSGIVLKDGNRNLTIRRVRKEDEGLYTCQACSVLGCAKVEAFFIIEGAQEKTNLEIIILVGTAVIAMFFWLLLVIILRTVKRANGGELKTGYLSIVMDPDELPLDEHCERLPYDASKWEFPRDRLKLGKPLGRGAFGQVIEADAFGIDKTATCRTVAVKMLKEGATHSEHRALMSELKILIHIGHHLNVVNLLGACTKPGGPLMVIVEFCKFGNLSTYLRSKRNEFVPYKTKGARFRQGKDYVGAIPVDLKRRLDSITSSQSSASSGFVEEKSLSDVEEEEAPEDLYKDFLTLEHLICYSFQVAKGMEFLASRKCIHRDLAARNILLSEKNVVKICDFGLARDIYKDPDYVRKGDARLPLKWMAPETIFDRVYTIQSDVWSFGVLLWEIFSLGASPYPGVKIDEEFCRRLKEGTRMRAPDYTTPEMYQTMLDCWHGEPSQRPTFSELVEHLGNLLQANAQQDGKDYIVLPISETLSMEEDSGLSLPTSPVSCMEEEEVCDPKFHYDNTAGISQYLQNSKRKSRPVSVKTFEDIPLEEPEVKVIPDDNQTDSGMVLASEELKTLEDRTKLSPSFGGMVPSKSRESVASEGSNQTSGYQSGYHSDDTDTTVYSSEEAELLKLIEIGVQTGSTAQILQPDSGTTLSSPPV

B1: 24B3 (antibody, V domains shown)
VH: EVQLVESGGGLVKPGGSLRLSCAASGFTFSTYSMNWVRQAPGKGLEWVSFISGRSSYIYYADSVKGRFTISRDNAKNSLYLQMNSLRAEDTAVYYCSKDDWFEELWGQGTLVTVSS
VL: DIQMTQSPSSLSASVGDRVTITCRASQGIRSDLGWYQQKPGKAPKRLIYATSSLQSGVPSRFSGSGSGTEFTLTISSLQPEDFATYYCLQHNRYPWTFGQGTKVEIK
notes: Purified fully human monoclonal antibody from XenoMouse hybridoma (IgG2 or IgG4 strains); also called MAb 24B3
Consider B1, for which, in the assay with human KDR on cells, the “% Inhibition (Average) of VEGF-C-mediated KDR activity, antibody 1 nM” value is 30%; the “% Inhibition (Average) of VEGF-C-mediated KDR activity, antibody 10 nM” value worked out at 62%; the “% Inhibition (Average) of VEGF-C-mediated KDR activity, antibody 100 nM” value was found to be 71%; the “% Inhibition (N = 1) of VEGF-C-mediated KDR activity, antibody 1 nM” value was determined as 26%. Also, in the assay with human KDR on cells, the “% Inhibition (N = 1) of VEGF-C-mediated KDR activity, antibody 10 nM” value is 61%; the “% Inhibition (N = 1) of VEGF-C-mediated KDR activity, antibody 100 nM” value was determined as 67%; the “% Inhibition (N = 2) of VEGF-C-mediated KDR activity, antibody 1 nM” value worked out at 34%; the “% Inhibition (N = 2) of VEGF-C-mediated KDR activity, antibody 10 nM” value came to 62%. In addition, the “% Inhibition (N = 2) of VEGF-C-mediated KDR activity, antibody 100 nM” value in the assay with human KDR on cells turned out to be 75%. In assay [1], the Kd stood at 1.09 nM, the koff stood at 0.000191 s⁻¹ and the on-rate constant (kon) stood at 175000 M⁻¹ s⁻¹.

What is called Kd is a measure of binding affinity in units of concentration. A word on the koff: it is a measure of how fast the partners let go of each other. Read a high koff as fast dissociation. As a reminder, the kon is the second-order rate constant of association. A low value points to slow association.
